pKd: −log10 of the molar value.
How the values were obtained:
[1] = target: IL-17RH1 (PRO5801) ECD (residues 1-275), baculovirus, His-tag removed (human); assay: SPR (BIAcore 1000), IL-17RH1 ECD immobilised, IL-17E in solution, 1:1 model
[2] = target: recombinant IL-17E (baculovirus, His-tag removed by thrombin) (human); assay: SPR (BIAcore 1000), IL-17E immobilised, IL-17RH1 ECD in solution, 1:1 model

Substance	pKd [1]	koff [1]	kon [1]	pKd [2]	koff [2]	kon [2]
recombinant IL-17E (baculovirus, His-tag removed by thrombin) (ligand)	8.85	0.00062 s⁻¹	430000 M⁻¹ s⁻¹	–	–	–
IL-17RH1 (PRO5801) ECD (residues 1-275), baculovirus, His-tag removed (receptor)	–	–	–	8.96	0.0007 s⁻¹	670000 M⁻¹ s⁻¹

From patent US20020182673A1
